Tests used:
[1] = target: T1, cytochrome c (Equus caballus (equine heart), UniProt P00004 2-105); test: PACE-FA; raw data, uncorrected; n=1.47; 10 mM NH4OAc pH 6.8 (fluorescence: 2.0 uM cyt c, 2.0-14.0 uM aptamer, 30 min); PACE-FA: NH4OAc pH 6.8, HPC-coated capillary; temperature not stated; settings: protein: commercial; tags: none
[2] = target: T1, cytochrome c; test: fluorescence titration; cyt c emission at 292 nm; Benesi-Hildebrand; 10 mM NH4OAc pH 6.8 (fluorescence: 2.0 uM cyt c, 2.0-14.0 uM aptamer, 30 min); PACE-FA: NH4OAc pH 6.8, HPC-coated capillary; temperature not stated; settings: protein: commercial, tags: none
[3] = target: T1, cytochrome c; test: PACE-FA; specific binding fit; n=1.22; lambda 7.11e3 M-1; 10 mM NH4OAc pH 6.8 (fluorescence: 2.0 uM cyt c, 2.0-14.0 uM aptamer, 30 min); PACE-FA: NH4OAc pH 6.8, HPC-coated capillary; temperature not stated; settings: protein: commercial; tags: none
[4] = target: T1, cytochrome c; test: PACE-FA; mobility correction; n=1.30; 10 mM NH4OAc pH 6.8 (fluorescence: 2.0 uM cyt c, 2.0-14.0 uM aptamer, 30 min); PACE-FA: NH4OAc pH 6.8, HPC-coated capillary; temperature not stated; settings: protein: commercial; tags: none
[5] = target: T1, cytochrome c; test: PACE-FA; raw data, uncorrected; n=2.05; 10 mM NH4OAc pH 6.8 (fluorescence: 2.0 uM cyt c, 2.0-14.0 uM aptamer, 30 min); PACE-FA: NH4OAc pH 6.8, HPC-coated capillary; temperature not stated; settings: protein: commercial; tags: none; multi-loop structure (as claimed in text)
[6] = target: T1, cytochrome c; test: PACE-FA; mobility correction; n=1.85; 10 mM NH4OAc pH 6.8 (fluorescence: 2.0 uM cyt c, 2.0-14.0 uM aptamer, 30 min); PACE-FA: NH4OAc pH 6.8, HPC-coated capillary; temperature not stated; settings: protein: commercial; tags: none; multi-loop structure (as claimed in text)
[7] = target: T1, cytochrome c; test: PACE-FA; specific binding fit; n=1.25; lambda 6.90e4 M-1; 10 mM NH4OAc pH 6.8 (fluorescence: 2.0 uM cyt c, 2.0-14.0 uM aptamer, 30 min); PACE-FA: NH4OAc pH 6.8, HPC-coated capillary; temperature not stated; settings: protein: commercial; tags: none; multi-loop structure (as claimed in text)
[8] = target: T1, cytochrome c; test: PACE-FA; mobility correction; n=1.10; 10 mM NH4OAc pH 6.8 (fluorescence: 2.0 uM cyt c, 2.0-14.0 uM aptamer, 30 min); PACE-FA: NH4OAc pH 6.8, HPC-coated capillary; temperature not stated; settings: protein: commercial; tags: none
[9] = target: T1, cytochrome c; test: PACE-FA; specific binding fit; n=0.84; lambda 2.83e4 M-1; 10 mM NH4OAc pH 6.8 (fluorescence: 2.0 uM cyt c, 2.0-14.0 uM aptamer, 30 min); PACE-FA: NH4OAc pH 6.8, HPC-coated capillary; temperature not stated; settings: protein: commercial; tags: none
[10] = target: T1, cytochrome c; test: PACE-FA; raw data, uncorrected; n=1.06; 10 mM NH4OAc pH 6.8 (fluorescence: 2.0 uM cyt c, 2.0-14.0 uM aptamer, 30 min); PACE-FA: NH4OAc pH 6.8, HPC-coated capillary; temperature not stated; settings: protein: commercial; tags: none

T1 sequence (P00004 2-105): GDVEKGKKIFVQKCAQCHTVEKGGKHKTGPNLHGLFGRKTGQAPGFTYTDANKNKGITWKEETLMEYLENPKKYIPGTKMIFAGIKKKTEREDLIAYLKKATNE

B1: Apt61 (ssDNA)
DNA: AGTGTGAAATATCTAAACTAAATGTGGAGGGTGGGACGGGAAGAAGTTTATTTTTCACACT
Ka [1]: 1.06e+06 M⁻¹ | Ka [2]: 625000 M⁻¹ | Ka [3]: 712000 M⁻¹ | Ka [4]: 643000 M⁻¹

B2: Apt76 (ssDNA)
DNA: ATCGATAAGCTTCCAGAGCCGTGTCTGGGGCCGACCGGCGCATTGGGTACGTTGTTGCCGTAGAATTCCTGCAGCC
Ka [5]: 1.65e+06 M⁻¹ | Ka ([2]; multi-loop structure (as claimed in text)): 868000 M⁻¹ | Ka [6]: 676000 M⁻¹ | Ka [7]: 1.53e+06 M⁻¹

CCGTGTCTGGGGCCGACCGGCGCATTGGGTACGTTGTTGC (ssDNA) [Apt40]
Ka [2]: 151000 M⁻¹ | Ka [8]: 545000 M⁻¹ | Ka [9]: 840000 M⁻¹ | Ka [10]: 2.01e+06 M⁻¹
